Assay results: paper PMC7987981, “Molecular characterisation of rare loss-of-function NPAS3 and NPAS4 variants identified in individuals with neurodevelopmental disorders” (Scientific Reports, 2021)

Biological target: T1, NPAS4 170X-Myc/FLAG (c.508C>T nonsense variant) (human, UniProt Q8IUM7-1 1-169)
T1 sequence (looked up): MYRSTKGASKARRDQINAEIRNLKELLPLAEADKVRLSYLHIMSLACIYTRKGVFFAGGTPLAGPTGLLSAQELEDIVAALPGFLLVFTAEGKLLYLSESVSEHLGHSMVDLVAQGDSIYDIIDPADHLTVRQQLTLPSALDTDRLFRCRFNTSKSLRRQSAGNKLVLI
Test: cell-based or functional assay

B1: ARNT2-Strep (natural protein)
chain: not shown
6xCME firefly luciferase reporter gene activity in HEK293T (dual luciferase; ARNT2-FLAG as partner; printed for ARNT and ARNT2 alike): > 200 fold decrease relative to wildtype
